Assays:
Assay in all cases: holdup assay
Parameters in all cases: key: below the threshold = too weak to quantify, mostly under pKd 3.1 to 4
MAGI1_2, Q96QZ7 = molecular target: MAGI1_2, Q96QZ7
APBA2_2, Q99767 = molecular target: T1, APBA2_2, Q99767
T1 sequence (Q99767 654-744, limits assumed, looked up): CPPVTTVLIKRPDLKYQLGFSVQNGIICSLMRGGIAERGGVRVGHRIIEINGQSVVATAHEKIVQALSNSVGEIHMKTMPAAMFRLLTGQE

MAGI2_4, Q86UL8 = molecular target: MAGI2_4, Q86UL8
MPP2, Q14168 = molecular target: T2, MPP2, Q14168
T2 sequence (Q14168 180-250, limits assumed, looked up): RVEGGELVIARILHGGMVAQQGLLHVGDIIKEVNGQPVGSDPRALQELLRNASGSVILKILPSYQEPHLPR

MPDZ_5, O75970 = molecular target: T3, MPDZ_5, O75970
T3 sequence (O75970 695-796, limits assumed, looked up): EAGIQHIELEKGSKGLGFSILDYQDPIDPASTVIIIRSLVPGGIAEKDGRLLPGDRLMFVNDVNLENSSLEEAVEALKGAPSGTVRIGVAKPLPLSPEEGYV

PDZD2_2, O15018 = molecular target: T4, PDZD2_2, O15018
T4 sequence (O15018 329-429, limits assumed, looked up): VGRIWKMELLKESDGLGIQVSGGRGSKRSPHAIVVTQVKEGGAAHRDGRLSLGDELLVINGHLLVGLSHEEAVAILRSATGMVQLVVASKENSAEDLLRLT

DLG1_1, Q12959 = molecular target: DLG1_1, Q12959
IL16_1, Q14005 = molecular target: IL16_1, Q14005
IL16_1, Q14005, sequence (Q14005 210-306): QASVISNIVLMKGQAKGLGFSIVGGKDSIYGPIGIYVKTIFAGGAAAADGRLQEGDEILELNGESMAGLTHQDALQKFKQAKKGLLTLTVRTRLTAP

SYNJ2BP, P57105 = molecular target: T5, SYNJ2BP, P57105
T5 sequence (P57105 8-110, limits assumed, looked up): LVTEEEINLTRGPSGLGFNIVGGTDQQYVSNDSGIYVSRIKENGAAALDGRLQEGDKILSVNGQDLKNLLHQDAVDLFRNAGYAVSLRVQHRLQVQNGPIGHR

GRIP2_6, Q9C0E4 = molecular target: GRIP2_6, Q9C0E4
GRIP2_6, Q9C0E4, sequence (Q9C0E4 648-740): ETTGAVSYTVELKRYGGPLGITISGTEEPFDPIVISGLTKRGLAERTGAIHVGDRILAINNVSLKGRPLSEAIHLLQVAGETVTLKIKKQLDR

SCRIB_2, Q14160 = molecular target: SCRIB_2, Q14160
SCRIB_2, Q14160, sequence (Q14160 857-960): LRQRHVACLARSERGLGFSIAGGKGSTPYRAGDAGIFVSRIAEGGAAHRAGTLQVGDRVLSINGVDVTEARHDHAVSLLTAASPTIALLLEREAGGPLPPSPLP

MPP7, Q5T2T1 = molecular target: T6, MPP7, Q5T2T1
T6 sequence (Q5T2T1 134-230, limits assumed, looked up): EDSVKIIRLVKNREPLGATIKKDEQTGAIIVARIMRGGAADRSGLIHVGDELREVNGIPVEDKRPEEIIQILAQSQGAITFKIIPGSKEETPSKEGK

NHERF3_1, Q5T2W1 = molecular target: T7, NHERF3_1, Q5T2W1
T7 sequence (Q5T2W1 4-100, limits assumed, looked up): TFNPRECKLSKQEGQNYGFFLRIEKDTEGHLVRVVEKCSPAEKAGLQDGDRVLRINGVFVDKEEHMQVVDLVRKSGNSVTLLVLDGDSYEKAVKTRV

TJP3_3, O95049 = molecular target: T8, TJP3_3, O95049
T8 sequence (O95049 375-456, limits assumed, looked up): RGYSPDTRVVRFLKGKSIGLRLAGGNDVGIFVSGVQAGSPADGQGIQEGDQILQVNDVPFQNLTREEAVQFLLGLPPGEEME

RHPN1, Q8TCX5 = molecular target: T9, RHPN1, Q8TCX5
T9 sequence (Q8TCX5 508-602, limits assumed, looked up): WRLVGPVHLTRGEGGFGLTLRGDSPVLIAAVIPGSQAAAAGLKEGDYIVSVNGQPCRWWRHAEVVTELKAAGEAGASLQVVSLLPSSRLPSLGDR

FRMPD2_3, Q68DX3 = molecular target: FRMPD2_3, Q68DX3
FRMPD2_3, Q68DX3, sequence (Q68DX3 1073-1166): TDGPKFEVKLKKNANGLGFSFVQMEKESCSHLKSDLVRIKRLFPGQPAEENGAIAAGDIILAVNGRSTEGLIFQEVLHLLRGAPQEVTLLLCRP

PDZD7_3, Q9H5P4 = molecular target: T10, PDZD7_3, Q9H5P4
T10 sequence (Q9H5P4 857-944, limits assumed, looked up): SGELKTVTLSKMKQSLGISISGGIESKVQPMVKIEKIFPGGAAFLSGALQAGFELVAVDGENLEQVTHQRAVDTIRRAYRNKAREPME

LNX1_2, Q8TBB1 = molecular target: LNX1_2, Q8TBB1
LNX1_2, Q8TBB1, sequence (Q8TBB1 371-470): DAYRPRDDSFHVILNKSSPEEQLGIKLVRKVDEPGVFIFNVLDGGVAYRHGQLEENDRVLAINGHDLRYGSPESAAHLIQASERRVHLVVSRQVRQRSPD

GORASP1, Q9BQQ3 = molecular target: GORASP1, Q9BQQ3
GORASP1, Q9BQQ3, sequence (Q9BQQ3 1-208): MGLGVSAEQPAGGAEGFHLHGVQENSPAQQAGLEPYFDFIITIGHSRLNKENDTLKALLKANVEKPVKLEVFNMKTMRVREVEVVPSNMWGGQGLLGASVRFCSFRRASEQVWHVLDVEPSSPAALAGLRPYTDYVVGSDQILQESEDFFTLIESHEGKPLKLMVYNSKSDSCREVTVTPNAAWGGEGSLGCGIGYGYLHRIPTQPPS

LRRC7, Q96NW7 = molecular target: T11, LRRC7, Q96NW7
T11 sequence (Q96NW7 1440-1537, limits assumed, looked up): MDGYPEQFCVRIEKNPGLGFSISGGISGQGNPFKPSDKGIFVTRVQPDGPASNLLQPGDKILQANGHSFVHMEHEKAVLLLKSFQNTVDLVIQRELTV

DLG4_3, P78352 = molecular target: DLG4_3, P78352
DLG4_3, P78352, sequence (P78352 306-403): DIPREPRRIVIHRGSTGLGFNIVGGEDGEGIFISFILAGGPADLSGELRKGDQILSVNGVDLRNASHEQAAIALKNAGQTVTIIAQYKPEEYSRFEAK

MPP6, Q9NZW5 = molecular target: T12, MPP6, Q9NZW5
T12 sequence (Q9NZW5 125-219, limits assumed, looked up): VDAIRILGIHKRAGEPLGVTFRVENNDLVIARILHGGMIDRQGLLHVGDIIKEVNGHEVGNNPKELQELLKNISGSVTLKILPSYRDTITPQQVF

HTRA2, O43464 = molecular target: HTRA2, O43464
HTRA2, O43464, sequence (O43464 355-458): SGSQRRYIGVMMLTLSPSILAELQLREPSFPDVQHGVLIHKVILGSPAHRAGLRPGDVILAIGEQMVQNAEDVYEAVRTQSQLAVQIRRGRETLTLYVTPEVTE

LNX1_1, Q8TBB1 = molecular target: LNX1_1, Q8TBB1
LNX1_1, Q8TBB1, sequence (Q8TBB1 261-371): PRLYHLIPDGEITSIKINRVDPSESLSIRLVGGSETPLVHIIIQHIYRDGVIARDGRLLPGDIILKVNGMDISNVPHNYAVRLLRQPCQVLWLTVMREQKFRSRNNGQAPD

GRIP1_4, Q9Y3R0 = molecular target: T13, GRIP1_4, Q9Y3R0
T13 sequence (Q9Y3R0 467-571, limits assumed, looked up): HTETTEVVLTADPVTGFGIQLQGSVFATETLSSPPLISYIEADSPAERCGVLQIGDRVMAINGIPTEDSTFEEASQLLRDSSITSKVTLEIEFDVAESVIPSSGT

[1] = plain residues with an end cap or a label only (N-terminal biotin on a linker: ado-ado)
[2] = plain residues with an end cap or a label only (N-terminal biotin on a linker: ahx)

MAGI2_4, Q86UL8, sequence (Q86UL8 772-865): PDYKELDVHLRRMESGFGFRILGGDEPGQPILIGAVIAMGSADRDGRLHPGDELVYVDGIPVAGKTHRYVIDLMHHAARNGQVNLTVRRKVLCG
MAGI1_2, Q96QZ7, sequence (Q96QZ7 456-580): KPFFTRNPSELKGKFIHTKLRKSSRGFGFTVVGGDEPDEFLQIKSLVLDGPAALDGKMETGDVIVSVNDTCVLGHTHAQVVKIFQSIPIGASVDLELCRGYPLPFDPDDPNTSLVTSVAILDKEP

GTGYDRKDYV [CLDN3, O15551]
pKd (MAGI1_2, Q96QZ7; [1]): below the threshold
pKd (APBA2_2, Q99767; [1]): below the threshold
pKd (MAGI2_4, Q86UL8; [1]): 3.85
pKd (MPP2, Q14168; [1]): below the threshold
pKd (MPDZ_5, O75970; [1]): below the threshold
pKd (PDZD2_2, O15018; [1]): 4.95
pKd (DLG1_1, Q12959; [1]): below the threshold
pKd (IL16_1, Q14005; [1]): below the threshold
pKd (SYNJ2BP, P57105; [1]): below the threshold
pKd (GRIP2_6, Q9C0E4; [1]): below the threshold
pKd (SCRIB_2, Q14160; [1]): below the threshold
pKd (MPP7, Q5T2T1; [1]): below the threshold
pKd (NHERF3_1, Q5T2W1; [1]): 4.55
pKd (TJP3_3, O95049; [1]): 3.73
pKd (RHPN1, Q8TCX5; [1]): below the threshold
pKd (FRMPD2_3, Q68DX3; [1]): below the threshold
pKd (PDZD7_3, Q9H5P4; [1]): 4
pKd (LNX1_2, Q8TBB1; [1]): below the threshold
pKd (GORASP1, Q9BQQ3; [1]): below the threshold
pKd (LRRC7, Q96NW7; [1]): below the threshold
pKd (DLG4_3, P78352; [1]): below the threshold
pKd (MPP6, Q9NZW5; [1]): below the threshold
pKd (HTRA2, O43464; [1]): below the threshold
pKd (LNX1_1, Q8TBB1; [1]): below the threshold
pKd (GRIP1_4, Q9Y3R0; [1]): below the threshold

DGVNEKVSCV [HTR2A, P28223]
pKd (MAGI1_2, Q96QZ7; [1]): below the threshold
pKd (APBA2_2, Q99767; [1]): below the threshold
pKd (MAGI2_4, Q86UL8; [1]): 3.72
pKd (MPP2, Q14168; [1]): below the threshold
pKd (MPDZ_5, O75970; [1]): below the threshold
pKd (PDZD2_2, O15018; [1]): 6
pKd (DLG1_1, Q12959; [1]): 3.84
pKd (IL16_1, Q14005; [1]): 4.72
pKd (SYNJ2BP, P57105; [1]): 4.3
pKd (GRIP2_6, Q9C0E4; [1]): below the threshold
pKd (SCRIB_2, Q14160; [1]): 3.64
pKd (MPP7, Q5T2T1; [1]): below the threshold
pKd (NHERF3_1, Q5T2W1; [1]): below the threshold
pKd (TJP3_3, O95049; [1]): below the threshold
pKd (RHPN1, Q8TCX5; [1]): 4.66
pKd (FRMPD2_3, Q68DX3; [1]): 3.53
pKd (PDZD7_3, Q9H5P4; [1]): 4.72
pKd (LNX1_2, Q8TBB1; [1]): below the threshold
pKd (GORASP1, Q9BQQ3; [1]): below the threshold
pKd (LRRC7, Q96NW7; [1]): below the threshold
pKd (DLG4_3, P78352; [1]): below the threshold
pKd (MPP6, Q9NZW5; [1]): below the threshold
pKd (HTRA2, O43464; [1]): below the threshold
pKd (LNX1_1, Q8TBB1; [1]): 4.48
pKd (GRIP1_4, Q9Y3R0; [1]): below the threshold

APSRKLNTEI [TIAM1, Q13009]
pKd (MAGI1_2, Q96QZ7; [2]): below the threshold
pKd (APBA2_2, Q99767; [2]): below the threshold
pKd (MAGI2_4, Q86UL8; [2]): below the threshold
pKd (MPP2, Q14168; [2]): below the threshold
pKd (MPDZ_5, O75970; [2]): below the threshold
pKd (PDZD2_2, O15018; [2]): below the threshold
pKd (DLG1_1, Q12959; [2]): below the threshold
pKd (IL16_1, Q14005; [2]): below the threshold
pKd (SYNJ2BP, P57105; [2]): below the threshold
pKd (GRIP2_6, Q9C0E4; [2]): below the threshold
pKd (SCRIB_2, Q14160; [2]): below the threshold
pKd (MPP7, Q5T2T1; [2]): below the threshold
pKd (NHERF3_1, Q5T2W1; [2]): below the threshold
pKd (TJP3_3, O95049; [2]): below the threshold
pKd (RHPN1, Q8TCX5; [2]): 3.88
pKd (FRMPD2_3, Q68DX3; [2]): below the threshold
pKd (PDZD7_3, Q9H5P4; [2]): 4.08
pKd (LNX1_2, Q8TBB1; [2]): below the threshold
pKd (GORASP1, Q9BQQ3; [2]): below the threshold
pKd (LRRC7, Q96NW7; [2]): below the threshold
pKd (DLG4_3, P78352; [2]): below the threshold
pKd (MPP6, Q9NZW5; [2]): below the threshold
pKd (HTRA2, O43464; [2]): below the threshold
pKd (LNX1_1, Q8TBB1; [2]): below the threshold
pKd (GRIP1_4, Q9Y3R0; [2]): below the threshold

TESNLQTSSC [CGN, Q9P2M7]
pKd (MAGI1_2, Q96QZ7; [2]): below the threshold
pKd (APBA2_2, Q99767; [2]): below the threshold
pKd (MAGI2_4, Q86UL8; [2]): 3.53
pKd (MPP2, Q14168; [2]): below the threshold
pKd (MPDZ_5, O75970; [2]): below the threshold
pKd (PDZD2_2, O15018; [2]): 4.1
pKd (DLG1_1, Q12959; [2]): below the threshold
pKd (IL16_1, Q14005; [2]): below the threshold
pKd (SYNJ2BP, P57105; [2]): below the threshold
pKd (GRIP2_6, Q9C0E4; [2]): below the threshold
pKd (SCRIB_2, Q14160; [2]): below the threshold
pKd (MPP7, Q5T2T1; [2]): below the threshold
pKd (NHERF3_1, Q5T2W1; [2]): below the threshold
pKd (TJP3_3, O95049; [2]): below the threshold
pKd (RHPN1, Q8TCX5; [2]): 4.44
pKd (FRMPD2_3, Q68DX3; [2]): below the threshold
pKd (PDZD7_3, Q9H5P4; [2]): below the threshold
pKd (LNX1_2, Q8TBB1; [2]): below the threshold
pKd (GORASP1, Q9BQQ3; [2]): below the threshold
pKd (LRRC7, Q96NW7; [2]): below the threshold
pKd (DLG4_3, P78352; [2]): below the threshold
pKd (MPP6, Q9NZW5; [2]): below the threshold
pKd (HTRA2, O43464; [2]): below the threshold
pKd (LNX1_1, Q8TBB1; [2]): 3.47
pKd (GRIP1_4, Q9Y3R0; [2]): below the threshold

RSSGGDDFWF [KCNV1, Q6PIU1]
pKd (MAGI1_2, Q96QZ7; [1]): below the threshold
pKd (APBA2_2, Q99767; [1]): below the threshold
pKd (MAGI2_4, Q86UL8; [1]): 4.13
pKd (MPP2, Q14168; [1]): below the threshold
pKd (MPDZ_5, O75970; [1]): below the threshold
pKd (PDZD2_2, O15018; [1]): 4.37
pKd (DLG1_1, Q12959; [1]): below the threshold
pKd (IL16_1, Q14005; [1]): below the threshold
pKd (SYNJ2BP, P57105; [1]): below the threshold
pKd (GRIP2_6, Q9C0E4; [1]): below the threshold
pKd (SCRIB_2, Q14160; [1]): below the threshold
pKd (MPP7, Q5T2T1; [1]): 4.45
pKd (NHERF3_1, Q5T2W1; [1]): 4.08
pKd (TJP3_3, O95049; [1]): below the threshold
pKd (RHPN1, Q8TCX5; [1]): below the threshold
pKd (FRMPD2_3, Q68DX3; [1]): below the threshold
pKd (PDZD7_3, Q9H5P4; [1]): 3.92
pKd (LNX1_2, Q8TBB1; [1]): below the threshold
pKd (GORASP1, Q9BQQ3; [1]): below the threshold
pKd (LRRC7, Q96NW7; [1]): below the threshold
pKd (DLG4_3, P78352; [1]): below the threshold
pKd (MPP6, Q9NZW5; [1]): below the threshold
pKd (HTRA2, O43464; [1]): below the threshold
pKd (LNX1_1, Q8TBB1; [1]): below the threshold
pKd (GRIP1_4, Q9Y3R0; [1]): below the threshold

From article PMC9482650, “Quantitative fragmentomics allow affinity mapping of interactomes” (Nature Communications, 2022)
